Laboratory results published in the supplement of paper PMC10567573.

B1: APBB1IP (parent)
chain: LPLPPPPPEPLSQVSMWDQRWQDH
B2: LOXL2 (parent)
chain: HISSCKLGPQVSLDPMKNVTCENG
B3: SMG5 (parent)
chain: FVSIAQSEQESLLQQAQAQFRMAQ

Variants of: B1
Assay: protein stability index of a GFP-peptide fusion (GPS, HEK-293T) (PSI 1-6); higher = more stable
Conditions: c terminus: a fixed tail appended
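Note: lentivirally expressed fusions sorted by FACS into six bins by GFP to DsRed ratio, PSI derived from sequencing read proportions per bin multiplied by bin number.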

Protein stability index of substitutions, site by site:
P7: K 3.97 | E 4.25
P5: W 3.4 | M 3.84 | K 3.28

Variants of: B2
Assay: as above
Conditions: c terminus: a fixed tail appended

Protein stability index, by site and new letter:
N23: C 4.01 | I 2.9 | L 3.1 | F 2.93 | W 2.21 | Q 4.08 | P 3.63 | V 3.53 | R 3.58 | G 3.85 | D 4.38 | S 3.91 | Y 3.35 | M 3.26 | A 3.53 | T 3.77 | H 3.61 | K 3.98 | E 4.63
V19: G 4.15 | A 4.32 | L 3.77 | D 4.67 | Q 4.08 | M 3.55 | R 4.26 | Y 3.76 | E 4.44 | S 4.38 | H 3.89 | T 3.71 | C 3.86 | N 4.57 | P 4.2 | K 4.13 | F 2.95 | W 2.99 | I 3.59
C21: H 4.03 | T 4.08 | E 4.92 | Q 3.86 | F 3.65 | L 3.88 | P 4.17 | M 3.61 | N 4.14 | K 4.06 | W 3.75 | A 4.41 | I 3.53 | S 4.63 | Y 3.36 | V 4.1 | G 4.05 | D 4.79 | R 3.94
E22: P 3.47 | R 3.5 | W 2.09 | H 3.18 | S 3.5 | L 2.58 | V 3 | T 3.23 | Q 3.47 | M 2.9 | A 3.51 | Y 2.44 | I 2.92 | N 3.35 | G 3.17 | F 2.46 | D 3.82 | K 3.89 | C 3.22
M16: R 4.47 | Y 3.86 | Q 4.43 | L 3.78 | P 4.16 | S 4.23 | T 4.04 | W 2.86 | V 4.34 | N 4.61
T20: K 4.26 | P 4.26 | D 4.4 | R 3.88 | G 3.87 | A 3.99 | V 3.83 | S 4.08 | E 4.16 | N 4.13 | H 3.85 | L 4.37 | Y 3.58 | Q 4.02 | I 3.84 | F 2.48 | C 3.37 | M 3.64 | W 2.31
G24: P 3.79 | E 4.47 | M 3.52 | S 4.25 | N 4.12 | R 3.58 | F 3.34 | T 4.05 | Y 3.29 | I 3.39 | W 2.93 | L 3.45 | Q 4 | C 3.37 | H 3.94 | A 3.65 | V 3.67 | K 3.82 | D 4.01
N18: K 4.19 | R 3.44 | C 3.11 | L 3.12 | F 2.82 | T 3.89 | W 2.88 | V 3.78 | Y 3.08 | Q 4.2 | A 3.76 | I 3.4 | E 3.82 | P 3.92 | D 4.34 | S 3.2 | M 3.42 | G 3.81 | H 3.81
K17: N 4.3 | P 4.01 | M 3.22 | A 3.98 | S 4.02 | T 4.19 | F 2.97 | C 3.63 | R 3.55 | D 4.66 | H 4.03 | L 3.77 | E 4.28 | W 3.05 | G 3.45 | I 3.3 | V 3.67 | Y 3.44 | Q 3.81

Variants of: B3
Assay: as above
Conditions: c terminus: a fixed tail appended

Protein stability index of substitutions, site by site:
F20: M 2.29 | Y 2.49 | P 2.75 | R 2.32 | H 3.04 | T 3.17
Q15: P 2.28 | G 2.55 | K 2.22 | S 2.27 | T 1.59 | H 2.24 | N 2.5
Q14: C 1.79 | K 2.79 | G 2.77 | P 2.17 | S 2.54 | N 2.59 | V 1.64 | E 2.88 | L 2.4 | A 2.11
L12: I 2.53 | W 1.75 | G 2.12
R21: A 2.27 | W 3.6 | C 1.44 | I 1.76 | S 1.82 | E 2.64 | F 1.92
I4: H 1.9 | F 2.2 | N 2.49 | P 3.08 | R 2.06 | L 1.86 | Y 2.12
A18: H 2.19 | G 1.89 | D 2.37 | Y 2.86 | T 2.3 | K 2.79 | I 2.54
A23: F 1.75 | V 2.02 | H 2.85 | M 2.17 | P 1.91 | T 2.33
S11: N 2.17 | G 1.2 | Q 2.23 | W 1.79 | Y 2.04 | M 1.97 | R 2.37 | T 2.63 | I 1.69 | D 2.46
A5: R 2.57 | S 1.76 | V 1.42 | F 2.56 | G 1.66 | P 1.88 | L 2.23 | K 2.3 | H 2.21 | C 1.82
Q24: N 2.24 | P 2.38 | C 1.94 | H 1.92 | T 2.08 | R 2.57 | W 2.76
A16: G 2.09 | E 2.43 | H 2.56 | T 2.69 | L 1.73 | P 1.88 | K 1.68 | V 1.78 | F 2.47
Q17: R 3.07 | A 1.95 | K 2.33 | T 1.73 | V 2.03 | H 1.91
V2: Y 2.69 | T 3.35 | C 2.82 | Q 2.9 | E 3.69 | G 3.65 | L 2.99 | P 3.8
M22: L 2.01 | G 2.3 | Q 2.05 | R 2.7 | D 2.68 | N 1.94 | S 2.92 | H 2.26 | C 3.04
Q9: G 1.95 | L 3.25 | H 2.2 | D 2.15 | K 1.73
S7: K 1.98 | D 2.33 | I 2.56
L13: E 2.13 | W 2.19 | R 2.07 | F 1.5 | Y 1.31 | H 3.08 | T 2.28 | D 3
E10: H 1.95 | T 1.52 | V 2.85 | Q 2.54 | C 2.07 | S 1.61 | G 1.6
Q6: S 2.25 | P 2.35 | V 1.53 | E 2.93 | M 2.19 | D 2.75
Q19: M 2.09 | T 1.98 | K 1.96 | A 1.87 | G 2.08 | S 1.81 | C 1.93
S3: Q 2.62 | A 1.99 | P 2.22 | C 1.66
E8: Q 2.44 | I 1.9 | D 2.39 | C 2.04 | H 2.02 | A 2.2
F1: C 2.75 | Y 2.51 | H 3.9 | L 3.3 | G 4.01 | I 2.96 | R 3.42 | T 4.04 | K 3.77
